Reference: publication PMC6009097, “Design and biological characterization of novel cell-penetrating peptides preferentially targeting cell nuclei and subnuclear regions” (Beilstein Journal of Organic Chemistry, 2018)
Marks after values point to notes of the source that are not given here. Where no end group is shown, it is not given here.

Experiments:
[1] = Circular dichroism spectroscopy (secondary structure); assay type: physicochemical; settings: 10 mM phosphate buffer pH 7.0 with TFE (50%), peptide 20 µM
Description: First, we performed a structural analysis by diluting all peptides to a concentration of 20 μM in phosphate buffer (pH 7.0), with or without the presence of the secondary structure inducing solvent trifluoroethanol (TFE).
Figure 1 Circular dichroism spectra of the novel peptides solved in 10 mM phosphate buffer (pH 7) (A), or phosphate buffer with the addition of TFE (50%) (B). Peptide concentration was 20 µM. (C) Helical wheel projections of the peptides N50-sC18* and NrTP-sC18*, respectively.
All peptides were analyzed in 10 mM potassium phosphate buffer (pH 7.0) with or without the addition of TFE (1:1 dilution) using a peptide concentration of 20 µM. Peptides were measured in a 0.1 cm quartz cuvette with a sensitivity of 100 mdeg in the range from 260 to 180 nm in 0.5 nm intervals. The scanning mode was continuous and a scanning speed of 50 nm/min was chosen. The results of pure buffer were subtracted from the spectra of the peptides. The ratio between the molar ellipticity at 222 nm and 207 nm was used to confirm an α-helical structure of peptides.

[2] = system: several different cell lines; settings: cited from earlier work
Description: Within their studies, the authors used higher concentrations, longer incubation times and other cell lines, what could probably explain the different results obtained in our study. In fact, it is very likely that working with increased concentrations of the NrTP sequence could probably improve the cell-penetrating capability of this peptide. Also for the N50 sequence alone, the internalization ability in several different cell lines was already determined [[2 ...

HeLa cells [3] = assay: Cellular uptake, confocal fluorescence microscopy; assay type: cell-based; settings: 10 µM CF-labeled peptide, 30 min, 37 °C; for cellular uptake (microscopy): trypan blue quench
Description: (§1) Next, we analyzed the intracellular fate of the new peptide variants using confocal fluorescence microscopy. Thus, MCF-7 and HeLa cells were incubated with 10 µM peptide solutions at 37 °C and inspected after 30 min (Figure 3).
(§2) Figure 3 Cellular uptake in HeLa and MCF-7 cells. Cells were incubated for 30 min with 10 µM of CF-labeled peptide solutions. Green: CF-labeled peptide; blue: Hoechst 33342 nuclear stain; scale bar is 10 µm.
(§3) For microscopic analyses, a confocal laser scanning system (Nikon D-Eclipse C1) with an inverted microscope (Nikon Eclipse Ti) was used. Pictures were taken with a 60× oil immersion objective (N.A. 1.4, Plan APO VC; Nikon) using the software EZ-C1 3.91 from Nikon.
(§4) Cells were seeded in 350 μL medium in an 8-well ibidi plate (HeLa 45,000, MCF-7 70,000 cells per well) and were grown to 70–80% confluency. Then, the medium was removed and the cells were treated with the peptides and substances in various concentrations for the requested time. Cells were incubated at 4 °C or 37 °C and 10 min prior to the end of incubation 0.6 μL of Hoechst stain (bisbenzimide H33342, 1 mg/mL in H2O, sterile filtered) was added to each well to stain the cell nuclei. After removing the solutions, cells were quenched with 200 μL of 150 μM trypan blue solution (in acetate buffer) for 30 s. The stain was removed and the cells were washed twice with medium. After adding 300 μL of fresh medium, pictures were taken using a fluorescence confocal microscope. Images were edited in Image J 1.43m.

MCF-7 cells [4] = assay: Cellular uptake, confocal fluorescence microscopy; assay type: cell-based; settings: MCF-7, 10 µM CF-labeled peptide, 30 min; for cellular uptake (microscopy) / intracellular distribution: 37 °C, confocal fluorescence; for cellular uptake (microscopy): trypan blue quench
Description: as §1, §2, §3, §4

HeLa cells [5] = assay: Cellular uptake, confocal fluorescence microscopy; assay type: cell-based; settings: 1 μM CF-labeled peptide, 37 °C; for cellular uptake (microscopy) at 1 μM: 30 and 120 min; for intracellular distribution at 1 μM: 30 or 120 min
HeLa cells [6] = assay: Resazurin-based cell viability assay; settings: 24 h; for concentration up to which no significant toxicity was observed: 37 °C, serum-free medium, resazurin read-out, n = 3 in triplicate
Description: (§5) In the next step, the cytotoxicity profiles of the novel peptide chimera were investigated. Therefore, we chose two different cancer cell lines, namely breast cancer MCF-7 and cervix carcinoma HeLa cells, which were exposed for 24 h to various concentrations of the peptides sC18*, N50, N50-sC18*, NrTP and NrTP-sC18* (Figure 2).
(§6) Figure 2 Cytotoxicity profiles of the peptides in MCF-7 and HeLa cells. Cells were incubated for 24 h with different concentrations of peptide solutions. Untreated cells served as negative control, cells treated with 70% ethanol as positive control. Values from the positive control were subtracted from all data, and the untreated cells were set to 100%; assays were performed with n = 3 in triplicate.
(§7) A total volume of 200 μL of cells (HeLa 40’000, MCF-7 50’000 cells per well) were seeded in 96-well plates and grown to 70–80% confluency. Afterwards, they were incubated with peptide or doxorubicin solutions (diluted in serum-free medium) in a total volume of 100 μL. In the wells that served as positive and negative controls, the medium was replaced by fresh medium without FBS. The plates were incubated for 24 h or 48 h at 37 °C. Afterwards, the positive control was treated with 100 μL of 70% EtOH for 10 min, and then all cells were washed with PBS. Cells were covered with 100 μL of a 10% resazurin solution in medium without FBS and incubated for 1–2 h at 37 °C. Afterwards, fluorescence was quantified by using a Tecan infinite M200 plate reader (excitation: 550 nm, emission: 595 nm).
To achieve comparably results, the positive control was subtracted from all data and the negative control was set to 100%, so that the results of the peptide-treated cells represent relative cell viability values in %. Experiments were done in triplicate.
Peptide solutions of 1, 5, 10,
25, 40, 55, 70, 85 and 100 µM were incubated with HeLa cells (24 h, 37 °C). Afterwards a resazurin-based cell
viability assay was performed according to the experimental part.
(1 picture or pasted object on this page, not shown here)

MCF-7 cells [7] = assay: Cytotoxicity of doxorubicin co-incubated with peptides (resazurin viability assay); assay type: cell-based; settings: 48 h
Description: (§8) Fluorescence microscopic images after 30 min incubation in HeLa (A) and MCF-7 (B) cells with 10 μM CF-labeled peptides N50-sC18* or NrTP-sC18* co-incubated with 10 μg/mL doxorubicin at 37 °C, respectively. Cells treated with DOX alone served as negative control; Green: CF-labeled peptide; blue: Hoechst 33342 nuclear stain; red: doxorubicin; scale bar is 10 µm. (C) Cells were incubated for 48 h with DOX (1 µg/mL), or solutions out of peptides (10 µM) and DOX (1 µg/mL), or peptide solutions (10 µM) alone. Untreated cells served as negative control, cells treated for 10 min with 70% ethanol as positive control. Experiments were conducted in triplicate with n = 2.
Herein, the drug alone (1 μg/mL) or in presence of 10 μM solutions of the peptides sC18*, N50-sC18* and NrTP-sC18*, respectively, were incubated for 48 h with MCF-7 cells.
as §7
Experiments were done in triplicate.

HeLa cells [8] = assay: Doxorubicin uptake on co-administration, fluorescence microscopy; assay type: cell-based; settings: DOX 10 µg/mL, 30 min, 37 °C
Description: (§9) Doxorubicin is known to be fluorescent and this property was used to test if the peptides were able to enhance the intracellular uptake of the drug. Therefore, solutions out of DOX and the sequences N50-sC18* and NrTP-sC18* were incubated with HeLa and MCF-7 cells, respectively, and observed for red fluorescence afterwards (Figure 7A and 7B).
as §8, with “Figure 7 Uptake and delivery of DOX into HeLa and MCF-7 cells. Fluorescence” for “Fluorescence”
(§10) Cells were seeded in 350 μL medium in an 8-well ibidi plate (HeLa 45,000, MCF-7 70,000 cells per well) and were grown to 70–80% confluency. […] After adding 300 μL of fresh medium, pictures were taken using a fluorescence confocal microscope. […]

MCF-7 cells [9] = assay: as above; assay type: cell-based; settings: MCF-7, DOX 10 µg/mL, 30 min, 37 °C
Description: as §9
as §8, with “Figure 7 Uptake and delivery of DOX into HeLa and MCF-7 cells. Fluorescence” for “Fluorescence”
as §10

HeLa cells [10] = assay: Cellular uptake quantified by flow cytometry; assay type: cell-based; settings: 10 µM peptide, 30 min, 37 °C, serum-free medium, 10,000 cells, triplicate
Description: (§11) Figure 4 Cellular uptake in MCF-7 and HeLa cells was quantified by flow cytometry. Cells were incubated with 10 µM peptide solutions for 30 min at 37 °C.
(§12) Cells were seeded in 24-well plates (HeLa 170,000, MCF-7 200,000 cells per well) and grown to 70–80% confluency. Then, cells were treated with 400 μL of peptide solutions dissolved in serum-free medium for the appropriate time at 4 °C or 37 °C. Afterwards, the cells were washed twice with PBS and detached with Trypsin-EDTA 1× in PBS without phenol red for 3–5 min followed by adding 800 μL of indicator-free medium. Cells were resuspended and 200 μL of the suspension were transferred to a 96-well plate for measuring the fluorescence in the Guava® easyCyte flow cytometer (Merck). In each sample, 10,000 cells were measured and each experiment was done in triplicate. Cells treated with medium only served as negative control and their fluorescent signal was subtracted from all other samples in each set of experiment.

MCF-7 cells [11] = assay: Cellular uptake quantified by flow cytometry; assay type: cell-based; settings: MCF-7, 10 µM peptide, 30 min, 37 °C, serum-free medium, 10,000 cells, triplicate
Description: as §11, §12

MCF-7 cells [12] = assay: Resazurin-based cell viability assay; settings: 24 h, 37 °C, serum-free medium, resazurin read-out, n = 3 in triplicate
Description: as §5, §6
as §7, with “Afterwards, the positive control was treated with 100 μL of 70% EtOH for 10 min, and then all cells were washed with PBS. Cells were covered with 100 μL of a 10% resazurin solution in medium without FBS and incubated for 1–2 h at 37 °C.” left out, “nm). […]” for “nm).”

[13] = MCF-7, peptide 10 μM + DOX 1 μg/mL

Row | Compound | secondary structure (CD) [1] | cellular uptake (microscopy) (HeLa cells [3]) | cellular uptake (microscopy) (MCF-7 cells [4]) | cellular uptake (microscopy) at 1 μM (HeLa cells [5]) | concentration up to which no significant toxicity was observed (HeLa cells [6]; HeLa cells) | cellular uptake (flow cytometry) (HeLa cells [10]) | cellular uptake (flow cytometry) (MCF-7 cells [11]) | intracellular distribution (HeLa cells [3]) | intracellular distribution at 4 °C (MCF-7 cells [4]) | intracellular distribution (MCF-7 cells [4]) | effect of the peptide on the toxic effect / efficacy of DOX (MCF-7 cells [7]; [13]) | intracellular distribution at 1 μM (HeLa cells [5]) | concentration up to which no toxic effects were observed (MCF-7 cells [12]) | further results
1 | VQRKRQKLMP [N50, reference compound] | random coil structure | not noticeable present | not noticeable present | no uptake at all | ≤ 50 µM | – | – | – | – | – | – | – | – | internalization ability / uptake [2]: very low
2 | COc1cccc2c1C(=O)c1c(O)c3c(c(O)c1C2=O)C[C@@](O)(C(=O)CO)C[C@@H]3O[C@H]1C[C@H](N)[C@H](O)[C@H](C)O1 [doxorubicin] | – | – | – | – | – | – | – | – | – | – | – | – | – | amount of viable cells, doxorubicin alone (MCF-7 cells [7]; MCF-7, DOX 1 μg/mL, triplicate with n = 2): about 60%; red fluorescence of DOX in cells, DOX only (HeLa cells [8]): Minor red fluorescence; red fluorescence of DOX in cells, DOX only (MCF-7 cells [9]): Minor red fluorescence
3 | VQRKRQKLMPGLRKRLRKFRNK [N50-sC18*] | formed α-helices | entered the cells extremely efficiently compared to sC18* alone | entered the cells extremely efficiently compared to sC18* alone | – | ≤ 50 µM | extremely high uptake | extremely high uptake | distributed within the whole cell cytosol, and accumulated particularly around the nucleus | mainly detectable within the nuclei | distributed within the whole cell cytosol, and accumulated particularly around the nucleus | significantly improved | diffusely distributed within the cytosol and the nuclei of HeLa cells, and after 120 min it mainly accumulated within the nuclei | ≤ 100 µM | R-value (ratio between the molar ellipticity at 222 nm and 207 nm) ([1]; CD): 0.83; number of viable cells after co-treatment with DOX (MCF-7 cells [7]; MCF-7, peptide 10 μM + DOX 1 μg/mL, triplicate with n = 2): 30%
4 | GLRKRLRKFRNK [sC18*, shortened version of the cell-penetrating peptide sC18, lacking its four C-terminal amino acids] | α-helical character | only small dots were detectable | only small dots were detectable | no uptake at all | ≤ 50 µM | – | – | – | – | – | could not enhance the efficacy of DOX | – | – | –
5 | YKQCHKKGGKKGSGGLRKRLRKFRNK-NH2 [NrTP-sC18*] | – | entered the cells extremely efficiently compared to sC18* alone | entered the cells extremely efficiently compared to sC18* alone | – | ≤ 50 µM | extremely high uptake | extremely high uptake | strong accumulation within the nucleoli | evenly distributed throughout the whole cell, including strong accumulation in the nuclei | strong accumulation within the nucleoli | – | accumulates in endosomes | ≤ 100 µM | IC50 (HeLa cells [6]): 53.7 ± 4.79 µM; effect on cell viability at 50 µM (HeLa cells [6]; HeLa cells, 50 µM): seemed to affect cell viability; effect on cell viability at higher concentrations (HeLa cells [6]; HeLa cells, concentrations above 50 µM): all cells were dead
